Experimental data published in publication PMC11519228, “Sugar alcohol degradation in Archaea: uptake and degradation of mannitol and sorbitol in Haloarcula hispanica” (Extremophiles, 2024).

Experiments:
[1] = biological target: ketohexokinase (KHK) from Haloarcula marismortui (Haloarcula marismortui); test: SEC; native molecular mass on a size exclusion column (superdex HiLoad 16/600 200 pg) calibrated with proteins from the HMW and LMW kits; purified His-tagged enzyme
[2] = substrate: NC(=O)c1ccc[n+]([C@@H]2O[C@H](COP(=O)(O)OP(=O)(O)OC[C@H]3O[C@@H](n4cnc5c(N)ncnc54)[C@H](O)[C@@H]3O)[C@@H](O)[C@H]2O)c1; test: photometric NADH assay, Michaelis-Menten fit; assay type: biochemical, Haloarcula hispanica; details: 50 mM Tris-HCl, 1.5 M KCl, 37 °C, varied: cofactor
[3] = substrate: OC[C@@H](O)[C@@H](O)[C@H](O)[C@@H](O)CO; test: photometric NADH assay, Michaelis-Menten fit; assay type: biochemical, Haloarcula hispanica; details: 50 mM Tris-HCl, 1.5 M KCl, 37 °C
[4] = substrate: Nc1ncnc2c1ncn2[C@@H]1O[C@H](COP(=O)(O)OP(=O)(O)OP(=O)(O)O)[C@@H](O)[C@H]1O; test: coupled pyruvate kinase / lactate dehydrogenase photometric assay, Michaelis-Menten fit; assay type: biochemical, Haloarcula marismortui; details: 100 mM Tris-HCl, 1.5 M KCl, pH 7.5, 20 mM fructose, 10 mM MgCl2, 37 °C
[5] = substrate: OC[C@@H](O)[C@@H](O)[C@H](O)[C@H](O)CO; test: photometric NADH assay, Michaelis-Menten fit; assay type: biochemical, Haloarcula hispanica; details: 50 mM Tris-HCl, 1.5 M KCl, pH 7.5, 1 mM MnCl2, 1 mM NAD+, 37 °C
[6] = substrate: Nc1ncnc2c1ncn2[C@@H]1O[C@H](COP(=O)(O)OP(=O)(O)OP(=O)(O)O)[C@@H](O)[C@H]1O; test: coupled pyruvate kinase / lactate dehydrogenase photometric assay, Michaelis-Menten fit; assay type: biochemical, Haloarcula hispanica; details: 50 mM Tris-HCl, 1.5 M KCl, pH 7.5, 4 mM fructose-1-phosphate, 10 mM MgCl2, 37 °C
[7] = biological target: the molecule itself; test: SEC; native molecular mass on a size exclusion column (superdex HiLoad 16/600 200 pg) calibrated with proteins from the HMW and LMW kits; purified His-tagged enzyme

Molecule: ketohexokinase (KHK) from Haloarcula marismortui (enzyme)
- stoichiometry N [1]: 2

B1: SorDH (Haloarcula hispanica ATCC 33960) (protein)
chain: MRTAVLVEPNEFELEDRPRPSPGPDDVLVAVRDVGICGSDVHYYEHGRIGDYVVEDPLVLGHESAGEVVEVGENVTHHEPGDRVALEPGVPCRRCAHCKRGDYHLCEEVTFMATPPHDGAFTEYVSWPADFAYTLPEAVSTAEGALCEPLSVGIHACRRGSVGTGDTVLITGAGPIGLMVLEAARAAGATDVILTDVVDEKLTFAEERGADLTVNVTETDLDAAVAEYTDGVGADVVVEASGAEPSIKSTIDVVRRGGTVVLVGLASEAEVPIDVLELIDNEVDVHGSFRYKNTYDAAVDLLADGEVDVEGIIDFESELEDIDDAFRRAMEPTVVKGMISLDS
notes: full-length gene from genomic DNA, N-terminal 6xHis tag, expressed in Haloferax volcanii H1209 (pTA963), Ni-NTA and size exclusion
- Km ([2]; pH 7.5, 1 mM MnCl2, 15 mM sorbitol): 1200 ± 350 µM
- Km ([3]; pH 7.5, 1 mM MnCl2, 2 mM NAD+): 14700 ± 7800 µM

B2: KHK (Haloarcula marismortui ATCC 43049) (protein)
chain: MDEETRRAVATADEALPTSDALPDAIDTGRVVFGFDGYLDRVREVVADRIDPESHERLATLESFGDRIDRSVAADSSLSFEWLQQGSRTGGHTSHLARAFGGWSFDPVMVGMYGDPVHDAFETEFGEYELHSLGEPGVTDAVEFDDGKLMLTEIGDTMSLDWAELDTAFGHDRLAEKLDGASLLGTGYWSETPDLPTVFDGLRTLWDGIDDPPETVLVDPGDVRKLDADRLRAGREAIGRLDEVTDVVVTSNRAETGVLADAYAGDAERSFADDAEAVFEALEPTWFVGHGVEQSVVVTAAGTDSVAVPSVSDPELTTSSGDHFNAGLGLARIADLSPAAAVVVGNAVAGYFVRTADQPSLADVRAFVDEYLEKF
notes: full-length gene from genomic DNA, N-terminal 6xHis tag, expressed in Haloferax volcanii H1209 (pTA963)
- Km [4]: 1290 ± 120 µM

B3: MtlDH (Haloarcula hispanica ATCC 33960) (protein)
chain: MRASTLTDVGEITVEERDRPDPADDEVLVQVGACSVCMTDYHMYHGTFAAETPLVLGHEGAGTVAEVGADVEGFAVGDRVAINPTVPCNACSYCKKGETHLCENNTSIGGAGDTILDGAFAEYVRVPAINVEDIGEMSFERAALAEPLACCVHGVEQTDIKPGDSVGIIGAGPIGLLLLQAFRNAGAAPIVVSELDDERRELAADLGADAVVDPNEEDPEEAICAAAGGPVDVGAEAIGLVPTIKQANAVTASGGSTLIFGVPDQEATMEISPFDVFFDEVDYRGSFSLTTEDFERAITLLRHERIDAETLITERIGLDDLPTAFERMGNAEGLKKVVVPGDSE
notes: as for B1
- Km [5]: 2600 ± 270 µM
- Km ([2]; pH 7.5, 1 mM MnCl2, 10 mM mannitol): 420 ± 30 µM
- Km ([3]; pH 7.5, 1 mM MnCl2, 1 mM NAD+, sorbitol up to 100 mM): 27600 ± 2660 µM

B4: fructose-1-phosphate kinase (1-PFK) from Haloarcula hispanica (enzyme, UniProt G0HX83 1-302, looked up)
chain: MIVTVTYNPAVDQTIQFDEQMAPDRVMRADEAQFDAGGKGINAAQFLTAMDRPCVATGLLGGFTGSFIRETLQDDGVETAFVDVDGTTRLNTTAIAAAGEYKLNQAGPTVGESVVDALLEQVRAQSPDRVLIGGSLPPGLSPNAIDRIAAGGDWETIVDTGGDVLRELDAQYGLCKPNRAELGDATGADVSTVEGCADAADAFRDRGFDRVLASLGADGAVLVGDTGRLYAEALDINVVDTVGAGDALLSGVLSAWEAGADDETALRTGVAVSSQVVQRAGTAVPDLNDIGSLRDGVTVRQL
notes: fructose-1-phosphate kinase of Haloarcula hispanica, gene fruK (HAH_1077), amplified from genomic DNA; subunits of 31.2 kDa; The gene was cloned into pTA963 with 6 x CAC fused to its 5' end (N-terminal 6 x His tag); also called F1P kinase; fruK; not shown: His6, N-terminal, kept
- Km [6]: 60 ± 4 µM
- stoichiometry N [7]: 2
